Test results: PMC2425495 (Nucleic Acids Research, 2008)

T1: HutP (V51I) (Bacillus subtilis, UniProt P10943 1-148, V51I)
T1 sequence: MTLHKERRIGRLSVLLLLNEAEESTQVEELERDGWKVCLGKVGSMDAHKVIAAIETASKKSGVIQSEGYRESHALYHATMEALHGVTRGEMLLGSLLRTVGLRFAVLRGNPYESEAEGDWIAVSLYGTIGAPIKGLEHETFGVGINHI

B1: HutP (Val 51 Ile mutant), anti-termination protein of the hut operon (natural protein, Bacillus subtilis)
chain: TLHKERRIGRLSVLLLLNEAEESTQVEELERDGWKVCLGKVGSMDAHKVIAAIETASKKSGVIQSEGYRESHALYHATMEALHGVTRGEMLLGSLLRTVGLRFAVLRGNPYESEAEGDWIAVSLYGTIGAPIKGLEHETFGVGINHI
B2: 21-mer RNA (ssRNA)
RNA: UUUAGUUUUUAGUUUUUAGUU

Columns and labels:
crystal structure = target: the molecule itself; experiment: crystal structure
HutP (V51I) = target: T1, HutP (V51I); experiment: EMSA

| Binder | stoichiometry N (crystal structure) | binding result (HutP (V51I)) |
| --- | --- | --- |
| B1 | 6 |  |
| B2 |  | binds |
